# Measurements published in the DeepSol protein solubility set.
# Test: soluble on expression in E. coli; label from the status in PepcDB or PDB records
row,Sequence,soluble on expression in E. coli
1,MSLKILFASSESYPFIKTGGLGDVSYALPKALRKIGIDARVIIPKYSDIPEYFRYNTHHIASFGVPVGWRSQYGGLEYYEYDGVPFYFIDNDYYFKRSGLYGYYDDGERFAYFSRGVLQAITYMQDFNPDIIQCNDWQTAIIPVLLKDHYRNYRNYNHIKTIFTIHNLKYQGVFGKSVLGELLCLNEGYYNENALKFYDGISFMKGGILFSDKLSTVSRTYAEEIKDPYYGEHLDGLLRSRSYDLWGIVNGIDYDILNPETDKDLFFNFDSSTLYNKTKNKIELQKMLNLPVSENIPMIGIVSRLVSQKGLDLISCVLEDLLQDGIQLVVLGTGDAKYENMFKYFAWKYPNKLSANIQFNNSLAQKIYGASDMFLMPSKFEPCGIGQLIALRYGSLPIVRETGGLKDTVRPFNPITGEGNGFSFTNYNAHDMLHVIRNAEYFYYNEKYNWNKLVQTAMNDDNSWSKSAEIYRNLYMSVLEGHHHHHH,not soluble
2,MPSLFSEDKLPALTYHCSVELNGNIYIFGGLMPCYSYEEDAPMLNDFFVDGIKNLPPPLLPQVINNPSMVNNPHLYVASIPSCRFSKPKMGGYIPPPLLCVQGSKLTDRHIFFYGGFEIRTETRGDENGKYHLKKRLYVNNTGYILDIMSFKF,not soluble
3,MCLGIPARVVEVLDGPLPMAVVDMAGEQRPCSVMYVPEVQVGQFVLLQNGYAMEVLDEKSAQESLATIAEFNLVQQVQLAPREPR,not soluble
4,GSASPTPPYLKWAESLHSLLDDQDGISLFRTFLKQEGCADLLDFWFACTGFRKLEPCDSNEEKRLKLARAIYRKYILDNNGIVSRQTKPATKSFIKGCIMKQLIDPAMFDQAQTEIQATMEENTYPSFLKSDIYLEYTRTGSESPKV,soluble
5,MHHYRVSGWTLATEIPLPHLFPCSAPAGEAAADITLRQGPVPPPPVPLRLDRDGIQVGADGHTVIDIPNCVRIGLTGGRDIMVDPAPGASWPEIQTWLLGPGLGVICHQRGVLPLHACAIRTGKGGLAIVGNSGAGKSTTATALVQRGHRLLGDDVLVVDPDTGLAQPCFPMVKLWDSSRSALDIGQEGQQSVGGKIGKWHMPMLAAFDPVPRPLSAIVHLRADPAARRPVLTRWPRPHAAAVLDAMTYRVYLADALHGRRHVLSAATRLAAHVPVWELVRTADFADLAEMLDMLEGLAGALEHHHHHH,not soluble
6,MYHVFFNRRPTRPRLPRALYEQLAALPLNTEVNVHTTNETHYNALFLGFEPRTNNVSLLVDRFYKDGGRSLAIDATTITAIDLPVSMRPASSADSDDEEE,not soluble
7,MSLPGFEISAQFRFLLSVTALLVREEFGRAPSLGQTQSLLQNGFSSAVVEKVNQNLVSHLNVLDGLQPFMGRPRLHPEGPKDASRRIGPGDQEVKKLSPAMPSEQGEDYWNLLVEFPDSLSISEATLKIVTYHYFSMAGNNKFDGDKTRMGAPGIRFPGKGYAATEHIWIREGSSLLRSLLTSLPTSWVKGEGLPAWADRTAQKSRTGQQQFHALWEATWSSNTVVSYWEDGYLTGVRVGGIPPAWWPDIPNTKEGEKALKLWWDQRNEKDPLYFYLKNKKGEPKAQRIDFGRDGIDLAVEWAAEAKMMDLVEKTYKNVLPVDSYPTVDGDDEGIDKYQLVFFRHQVEGTASSPSIRASEVFLADRSVWAFDLSCDEQLRLRDNAQLVRDVYITLLGVFRRKSAADASREVATGWGAAVLDSLAVSQSDASDAYWRGVTDVYQKYLADLRVGEEITEELYRGIRSAALEAYDEVTAPYLAQYANEIYYVRASLVRSVNSKINTARDEGIGRIKEESNE,not soluble
8,MGSDKIHHHHHHMPLKTPPCVRRHTTGHETCSAQRSEHDGRRHLFPHDARALEIQERDVTHPIVSSEVPVEYINLPEPQTEGGMPLMTALHKRRSVRSFAQRPLDEALLSTLLWAAFGINRPDTGLRTAPSARNWQEIDVYVAMPDGLYALEPAAWRLRLVTGEDLRAATGLQDYVSTAPLDLVYVSRLSKLDETDKPMRQFYTALDTGYISQNVYLFCAASGLATVARGLLDRRALAKAMRLDPDQRVVLAQSVGFPA,not soluble
9,MDYHIQEEKILEVLKENVYGLRGSIAFSGGLDSSLLYVISDRNLVPYTVGYSFSHDVNRAKFVLSLLNGSGKYVTLDEINIENYVKYLKSEYPDINKVEISFELVLEILLENVDSDLLVTGQGADELFFGYKRSVNEMDNSLQMERLLKRTIPREKDMAKRQGKELVTPFLDDRILKLASEISPAYHCLYGGKKALREIAKIAGLPEEVYGYRKKAAQYGSGIDKALKSVSYFGLF,not soluble
10,MSKKFFLSLGLVALLFSNSQAIDENLIKAAQAEGRVNSLAMPDTWANWKDTWADLKNLYDIEHSDTDMSSAQEIAKFKTEKKNASGDIGDVGASFGEIAVKQGVAQPFKTSYWDQIPTWAKDKDGNWLLAYTGTIAFIVNKDVVKDIPKTWQDLLKGNYKITVGDVSVAAQAVSAVLAANYALGGDEKDLSPALAFFNTLAKQGRLVNNDVSIANLEKGEVEVGLVWDFNGLGYRDKVGKDRYEVLIPADGSVISGYTTIINKYAKHPNAAKLAREFILSDKGQINLAKGYARPIRIDHITLPDDIKAKLLPSEQYKNARAIKDQKAWEKSAKELPQLWQEKVIVDMK,not soluble
11,VDEPESMVNLAFVKNDSYEKGPDSVVVHVYVKEICRDTSRVLFREQDFTLIFQTRDGNFLRLHPGCGPHTTFRWQVKLRNLIEPEQCTFCFTASRIDICLRKRQSQRWGGLEAPAARVGGA,soluble
12,MSLCGIVAFYYPEINDKQAAIGKMMATIQHRGPSSDGMYTNDKVALGFRRLSIIDLRCGSQPIYNEDRSRAIIFNGEIYNFKPLREELIKAGHTFSTKADTEVILHGYEEWGMDGILKRVRGMFAFIIWDDNTQTMYGARDFFGIKPMYYQDVDGHLLVGSELKSFLAFPHFKKELNTEAVKPYLMNQYNDLKETFFKGVYRFQPGHWFEYKDGKMKTHQYWDAEYKDNNLSFEETVKKINEDLKETVDLYRNADVKVGAFLSEGVDSSFLTALLDPDEVFSIGFDDNTYDEASKAKALADINGWHFYADKVYSEEAMRDFPEMQYHMDEPDANPSIIPLWYLCKLARKHVTVALSGEGADELFAGYVNYGMHTHNNVIKVFTDKLKKLPKGKRVKLAHKIKKMPNFPGKVHLYTNLAEPSEFYVGQSVIYDMDYPTIFTSKDANAVLQPSYRNKLTVNGNYQEDFKKVKDLDNVKQMQYIDLHHFMLNDIEQKADKISMAHSLELRVPYLDVKIAKLANSIPSKYLVNKYDTKYALRKASEQVLPDEWAKRPKLGFPTPIKQWLQEERFYKQVRDLFSEDFVNDIFEQKKILDLLDENYNGDGSHRRQIWVIYTFLVWYKLFFVDYEEGHHHHHH,soluble
13,MGSSHHHHHHSSGLVPRGSHMSLDMKEHPDAEVQKNQVLTLEDWKEKWVTRHISFHQEQGHQLLKKHLDTFLKGQSGLRVFFPLCGKAIEMKWFADRGHTVVGVEISEIGIREFFAEQNLSYTEEPLAEIAGAKVFKSSSGSISLYCCSIFDLPRANIGKFDRIWDRGALVAINPGDHDRYADIILSLLRKEFQYLVAVLSYDPTKHAGPPFYVPSAELKRLFGTKCSMQCLEEVDALEERHKAWGLDYLFEKLYLLTEK,soluble
14,MIRRAKPLLGTLIEIAVESVVEASSQSALDEPAIQAAITAAFSRITQIGRLLSFHQQDSELNLLNRQPGQWITLSQDSLRVFKLAKWFGKASDNLFNCTIGGEMMSRGALPCYLGMPLLLQGDWQDIEIRGNQARLARPLIVTFDGIAKGYAVDMAVRELRRAGVSGGWVNAGGDLKVFGSASLDVLCRGSNGLSQKVTVRNMALASSRVSLQLSLGCPALLLPTGNVDMMSFDASNERVVSVQAPFAWRADALTKVAGYLSAEAAKDKIQQLGGQLVC,not soluble
15,MFRRIPLGRFLTRKIHNQTNGLIVPTTNVQKQQKRQILFKMGNETPARVVGYYVVFPVIPEETVENNCFMYNIAKNEDWPKLATAEPRELYEGTVRMLMDYGATVMEHMEHLATLPAEERKFENVVEPLLTEEYEVNFAFQTLVLKMLTDWPDCNRKLFDADLHHIKIMCARDQMEKLTNKDFQDAIKQLYEAKDGLSEWQSRLLEWYLLEIKASGLDKHDDKTRKVLGSWSKFVDEYRSKYITGVMSTNDQQTFVVTDQKVIKDAPPHVLQKLAVDEQNWESGPWRGRMTPHTIYPFMQYCGDRQLRATAWEKWTSKAGFDHDFYNNSINIEELRHNNEGLAKTLGYSSVAEHRLANKMAASPETVRGFINALQRRIRPVVIDRMESWSAWAGRCELITGELQAYDMPYVCRKEAEHHYEFFFQLKSSNFSFFRVNPLDLMNHFPFWPTFQNIMGVIGHIFNLEFKDITDKGLEKAHADVRIYSVGDKFSGQHYGRLYIDPYDRQNKRGGWNVMLARPESKERGLDKIVYFIGSAIAPTSNGPSLLHHQQLQQLLFHFGRSVQLLLSQSPYRDISIPWSPFYASDWDAADMFPTFLQMFVTKPNLLATISSPHQITKQSLTEEHANSVALTISRASLWETYRTLFWSDFDLSIYEMEDRKQKFWLDMYKQMYEEYFPFKRAKNDYQPCSFTPIFALQPHMSMYYRKLWAEMLALDIHETFDEEDNEVQTGERLKTTILNRGSGDVAKELFKRFQGRNPSVGAICDHYAPPMAIQDEMEMSENQRR,not soluble
16,MGSDKIHHHHHHMKVSDIMTPDPITYHVPSSINEVIKVLIKYNVTGVPITDQSGHYAGFVSRRDVFANPRETQTAMVMRRSKAVYEDDEVRTAALEMLAQKKRHLTVVDRDGHVKGILTPQNFMKTIKENYGNVKVKEVMKETSVPIWYKTPLPAILTVMNVSGIFSFPVIDDNGTFVGLLVDRDIFDRIDLKFDSILSEMGIADDEDPWSWTGLRNVFKYVVERADIKLPKISADEIMVKNPTVVYANDKLSTAAELMIKYNYNQLPVLDDSHGIYGMLYDIEMLGVFQ,not soluble
17,MGHHHHHHSHMTLEEFSAGEQKTERMDKVGDALEEVLSKALSQRTITVGVYEAAKLLNVDPDNVVLCLLAADEDDDRDVALQIHFTLIQAFCCENDINILRVSNPGRLAELLLLETDAGPAASEGAEQPPDLHCVLVTNPHSSQWKDPALSQLICFCRESRYMDQWVPVINLPER,not soluble
18,MADRGGFQSGFGGRGGGRGGARPAGDRPAGRGGRGGRGGRGGRGGRAGRGGEKETEWTPVTKLGRLVKEKKITTLEEIYLNSLPIKEFEIIDALCSNLKDEVLKISPVQKQTTAGQRTRFKAFVAIGDHAGHVGLGVKCSKEVATAIRGAIVAAKLAVVPVRRGYWGNKIGLPHTVPCKVTGKCASVMVRLIPAPRGTGIVSAPVPKKLLHMAGIEDCYTAAKGSTATLGNFAKATYAALQRTYSYLTPDLWKEEALEKSPYQRHHEYLARN,not soluble
19,MGSDKIHHHHHHMIILTRKDLDELLKAEIAVSSVKEAFKLHYQKKVDQPQRLVMSVKGNWWGLMPSSTDYSFVTKIVNVIPENKERGLPLVQGVVILMSPDTGEILAIIDGTTLTAIRTAAASILSTELAINGRNIGILGIIGAGTEAYYHAKLALEYFKVQKLYISARKSHFELAKRVGGEATDLETLLKNSDTIFATTSSNFPVVLGKYLKDVFHLSSIGAHTPDSRELDDDTIIKVKSYIVDSLEAVSKESGDYIIPKQRGLLENKMIKELGEIIEKGIKIERPSLFKTVGIAVEDNITAHIAYQEALRRGIGFNVSI,not soluble
20,PVAMKEAQKRLGDKVEYTTDMYDAVRGAEALFHVTEWKEFRMPDWSALSQTMAASLVIDGRNVYELPADSDFTLLNIGNSAIESASSK,not soluble
21,MGSDKIHHHHHHMADTAPQLKRKREQEAEEAETPSTEEKEAGVGNGTSAPVRLPFSGFRVQKVLRESARDKIIFLHGKVNEDSGDTHGEDAVVILEKTPFQVEHVAQLLTGSPELKLQFSNDIYSTYNLFPPRHLSDIKTTVVYPATEKHLQKYMRQDLRLIRETGDDYRTITLPYLESQSLSIQWVYNILDKKAEADRIVFENPDPSDGFVLIPDLKWNQQQLDDLYLIAICHRRGIRSLRDLTPEHLPLLRNILREGQEAILKRYQVTGDRLRVYLHYLPSYYHLHVHFTALGFEAPGSGVERAHLLAQVIENLECDPKHYQQRTLTFALRTDDPLLQLLQKAQQERN,soluble
